These results are taken from IntAct's records for PubMed 19411703.

To fix the notation:
B1: Phospholipid-transporting ATPase DRS2 (Saccharomyces cerevisiae), P39524 (parent)
chain: MNDDRETPPKRKPGEDDTLFDIDFLDDTTSHSGSRSKVTNSHANANYIPPSHVLPEETIDLDADDDNIENDVHENLFMSNNHDDQTSWNANRFDSDAYQPQSLRAVKPPGLFARFGNGLKNAFTFKRKKGPESFEMNHYNAVTNNELDDNYLDSRNKFNIKILFNRYILRKNVGDAEGNGEPRVIHINDSLANSSFGYSDNHISTTKYNFATFLPKFLFQEFSKYANLFFLCTSAIQQVPHVSPTNRYTTIGTLLVVLIVSAMKECIEDIKRANSDKELNNSTAEIFSEAHDDFVEKRWIDIRVGDIIRVKSEEPIPADTIILSSSEPEGLCYIETANLDGETNLKIKQSRVETAKFIDVKTLKNMNGKVVSEQPNSSLYTYEGTMTLNDRQIPLSPDQMILRGATLRNTAWIFGLVIFTGHETKLLRNATATPIKRTAVEKIINRQIIALFTVLIVLILISSIGNVIMSTADAKHLSYLYLEGTNKAGLFFKDFLTFWILFSNLVPISLFVTVELIKYYQAFMIGSDLDLYYEKTDTPTVVRTSSLVEELGQIEYIFSDKTGTLTRNIMEFKSCSIAGHCYIDKIPEDKTATVEDGIEVGYRKFDDLKKKLNDPSDEDSPIINDFLTLLATCHTVIPEFQSDGSIKYQAASPDEGALVQGGADLGYKFIIRKPNSVTVLLEETGEEKEYQLLNICEFNSTRKRMSAIFRFPDGSIKLFCKGADTVILERLDDEANQYVEATMRHLEDYASEGLRTLCLAMRDISEGEYEEWNSIYNEAATTLDNRAEKLDEAANLIEKNLILIGATAIEDKLQDGVPETIHTLQEAGIKIWVLTGDRQETAINIGMSCRLLSEDMNLLIINEETRDDTERNLLEKINALNEHQLSTHDMNTLALVIDGKSLGFALEPELEDYLLTVAKLCKAVICCRVSPLQKALVVKMVKRKSSSLLLAIGDGANDVSMIQAAHVGVGISGMEGMQAARSADIAVGQFKFLKKLLLVHGSWSYQRISVAILYSFYKNTALYMTQFWYVFANAFSGQSIMESWTMSFYNLFFTVWPPFVIGVFDQFVSSRLLERYPQLYKLGQKGQFFSVYIFWGWIINGFFHSAIVFIGTILIYRYGFALNMHGELADHWSWGVTVYTTSVIIVLGKAALVTNQWTKFTLIAIPGSLLFWLIFFPIYASIFPHANISREYYGVVKHTYGSGVFWLTLIVLPIFALVRDFLWKYYKRMYEPETYHVIQEMQKYNISDSRPHVQQFQNAIRKVRQVQRMKKQRGFAFSQAEEGGQEKIVRMYDTTQKRGKYGELQDASANPFNDNNGLGSNDFESAEPFIENPFADGNQNSNRFSSSRDDISFDI
partner: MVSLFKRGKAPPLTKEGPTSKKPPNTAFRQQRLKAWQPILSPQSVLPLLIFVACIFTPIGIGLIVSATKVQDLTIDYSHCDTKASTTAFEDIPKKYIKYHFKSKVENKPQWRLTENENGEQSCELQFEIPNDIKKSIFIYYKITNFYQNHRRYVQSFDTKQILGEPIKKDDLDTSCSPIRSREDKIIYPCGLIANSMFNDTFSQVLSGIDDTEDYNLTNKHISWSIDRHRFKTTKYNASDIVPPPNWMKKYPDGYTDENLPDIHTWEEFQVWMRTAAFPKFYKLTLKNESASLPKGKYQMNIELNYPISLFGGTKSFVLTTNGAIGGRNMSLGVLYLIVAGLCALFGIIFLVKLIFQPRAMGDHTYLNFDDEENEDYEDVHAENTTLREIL
B2: Phospholipid-transporting ATPase DNF1 (Saccharomyces cerevisiae), P32660 (parent)
chain: MSGTFHGDGHAPMSPFEDTFQFEDNSSNEDTHIAPTHFDDGATSNKYSRPQVSFNDETPKNKREDAEEFTFNDDTEYDNHSFQPTPKLNNGSGTFDDVELDNDSGEPHTNYDGMKRFRMGTKRNKKGNPIMGRSKTLKWARKNIPNPFEDFTKDDIDPGAINRAQELRTVYYNMPLPKDMIDEEGNPIMQYPRNKIRTTKYTPLTFLPKNILFQFHNFANVYFLVLIILGAFQIFGVTNPGLSAVPLVVIVIITAIKDAIEDSRRTVLDLEVNNTKTHILEGVENENVSTDNISLWRRFKKANSRLLFKFIQYCKEHLTEEGKKKRMQRKRHELRVQKTVGTSGPRSSLDSIDSYRVSADYGRPSLDYDNLEQGAGEANIVDRSLPPRTDCKFAKNYWKGVKVGDIVRIHNNDEIPADIILLSTSDTDGACYVETKNLDGETNLKVRQSLKCTNTIRTSKDIARTKFWIESEGPHSNLYTYQGNMKWRNLADGEIRNEPITINNVLLRGCTLRNTKWAMGVVMFTGGDTKIMLNSGITPTKKSRISRELNFSVVINFVLLFILCFVSGIANGVYYDKKGRSRFSYEFGTIAGSAATNGFVSFWVAVILYQSLVPISLYISVEIIKTAQAAFIYGDVLLYNAKLDYPCTPKSWNISDDLGQVEYIFSDKTGTLTQNVMEFKKCTINGVSYGRAYTEALAGLRKRQGIDVETEGRREKAEIAKDRDTMIDELRALSGNSQFYPEEVTFVSKEFVRDLKGASGEVQQRCCEHFMLALALCHSVLVEANPDNPKKLDLKAQSPDEAALVATARDVGFSFVGKTKKGLIIEMQGIQKEFEILNILEFNSSRKRMSCIVKIPGLNPGDEPRALLICKGADSIIYSRLSRQSGSNSEAILEKTALHLEQYATEGLRTLCIAQRELSWSEYEKWNEKYDIAAASLANREDELEVVADSIERELILLGGTAIEDRLQDGVPDCIELLAEAGIKLWVLTGDKVETAINIGFSCNLLNNEMELLVIKTTGDDVKEFGSEPSEIVDALLSKYLKEYFNLTGSEEEIFEAKKDHEFPKGNYAIVIDGDALKLALYGEDIRRKFLLLCKNCRAVLCCRVSPSQKAAVVKLVKDSLDVMTLAIGDGSNDVAMIQSADVGIGIAGEEGRQAVMCSDYAIGQFRYLARLVLVHGRWSYKRLAEMIPEFFYKNMIFALALFWYGIYNDFDGSYLYEYTYMMFYNLAFTSLPVIFLGILDQDVNDTISLVVPQLYRVGILRKEWNQRKFLWYMLDGLYQSIICFFFPYLVYHKNMIVTSNGLGLDHRYFVGVYVTTIAVISCNTYVLLHQYRWDWFSGLFIALSCLVVFAWTGIWSSAIASREFFKAAARIYGAPSFWAVFFVAVLFCLLPRFTYDSFQKFFYPTDVEIVREMWQHGHFDHYPPGYDPTDPNRPKVTKAGQHGEKIIEGIALSDNLGGSNYSRDSVVTEEIPMTFMHGEDGSPSGYQKQETWMTSPKETQDLLQSPQFQQAQTFGRGPSTNVRSSLDRTREQMIATNQLDNRYSVERARTSLDLPGVTNAASLIGTQQNN
partner: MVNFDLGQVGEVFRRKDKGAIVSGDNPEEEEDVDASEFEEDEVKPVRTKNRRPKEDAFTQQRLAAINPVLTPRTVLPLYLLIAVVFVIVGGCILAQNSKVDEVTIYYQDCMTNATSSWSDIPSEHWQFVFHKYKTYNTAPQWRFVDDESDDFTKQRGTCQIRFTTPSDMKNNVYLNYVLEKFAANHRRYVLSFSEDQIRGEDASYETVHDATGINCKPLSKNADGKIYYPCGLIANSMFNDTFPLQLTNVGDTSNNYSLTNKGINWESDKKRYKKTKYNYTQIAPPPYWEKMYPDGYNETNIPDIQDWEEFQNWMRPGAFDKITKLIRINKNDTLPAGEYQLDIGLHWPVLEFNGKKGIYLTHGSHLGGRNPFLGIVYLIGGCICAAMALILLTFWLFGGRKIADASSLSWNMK

In one assay the parent is B1. The note with it: with cdc50_yeast CDC50, P25656.
For D560E, the “effect of a mutation on the interaction” value is recorded as “decreasing interaction strength”.

With G341L, the “effect of a mutation on the interaction” value was “decreasing interaction strength”.

Regarding E342Q, the “effect of a mutation on the interaction” value was “with no effect”.

The variants in a further assay derive from B1. Particulars: with cdc50_yeast CDC50, P25656. This is another data set of the same source.
D560N: the “effect of a mutation on the interaction” value is recorded as “decreasing interaction strength”.

The next assay covers variants of B2. The note with it: with lem3_yeast LEM3, P42838.
On to D667N, for which the “effect of a mutation on the interaction” value is recorded as “disrupting interaction strength”.

With D667E, the “effect of a mutation on the interaction” value is “disrupting interaction strength”.
